Data as given in paper PMC10720262 (Cell Reports, 2023).

Target: recombinant full-length PfCSP (Plasmodium falciparum circumsporozoite protein, strain NF54) (Plasmodium falciparum NF54, UniProt P19597)
Sequence (P19597 20-375): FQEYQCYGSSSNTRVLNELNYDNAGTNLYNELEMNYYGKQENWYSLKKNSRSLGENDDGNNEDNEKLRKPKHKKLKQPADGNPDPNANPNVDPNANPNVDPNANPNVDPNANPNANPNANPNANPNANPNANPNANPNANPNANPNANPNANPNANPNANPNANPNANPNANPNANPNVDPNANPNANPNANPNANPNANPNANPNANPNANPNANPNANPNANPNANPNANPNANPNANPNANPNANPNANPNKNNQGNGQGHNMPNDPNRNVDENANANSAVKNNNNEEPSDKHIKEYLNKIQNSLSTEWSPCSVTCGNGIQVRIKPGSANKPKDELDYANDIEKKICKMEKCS

B1: CL-510499 (antibody, V domains shown)
VH: QVQLVESGGGLVQPGRSLTLSCAASGFTFSNYGMHWVRQTPGKGLEWVALIRYDGSYKFYADSVKGRFTISRDNSKNTLYLQMNSLRAEDTAIYFCARDGDYSNSAGDFDYWGQGTLVTVSS
VL: EIVLTQSPGTLSLSPGERATLSCRASQSVSSTNLAWYQQKPGQAPRLLIYGVSSRATGIPDRFSGSGSGTDFTLTINRLEPEDFAVYYCQQHGRSFTFGPGTKVEIK
binding result: binds

B2: CL-510453 (antibody, V domains shown)
VH: QVQLVESGGGVVQPGRSLRLSCAASGFTFSSYGMHWVRQAPDKGLEWVAIIWYDGSKKYYADSVKGRFTVSRDNSKNTLYLQMNSLRAEDTAVFYCARSFDYESGGFYSFDYWGQGTLVSVSS
VL: DIQMTQSPSTLSASVGDRVTITCRASQSISSWLAWYQQKPGKAPKLLIYRASSLASGVPSRFSGSGSGTEFTLTISSLQPDDFATYYCQQYNSYWTFGQGTKVEFK
binding result: binds

B3: CL-510640 (antibody, V domains shown)
VH: QVQLVESGGGVVQPGRSLRLSCAASGFTFSNYGMHWVRQAPVKGLEWVAIIWYDGSNKFYADSVRGRFIISRDNSKNTLYLQMNSLRAEDTAVYFCARAREGQNSDYYGSETSYTFDSWGLGTLVTVSS
VL: DIQMTQSPSTLSASVGDRVTITCRASQSISSWLAWYQQKPGKAPKFLIYKASSLESGVPSRFSGSGSGTEFTLTISSLQPDDFATYYCQQYKSYWTFGQGTKVEIK
binding result: binds

B4: CL-510487 (antibody, V domains shown)
VH: QVQLEESGGGVVQPGRSLRLSCTATGFTFSNYGMHWVRQAPGRGLEWVGVIWYDGSNKFYVDSVKGRFTISRDNSKNTLYLQMNSLRAEDTAVYYCARDGGYYGSGSYWWFDSWGQGTLVTVSS
VL: DIQMTQSPSTLSASVGDRVTITCRASQSISSWLAWYQQKPGKAPKLLIYKASSLERGVPSRFSGSGSGTEFTLTISSLQPDDFATYYCQQYNRYCSFGQGTKLEIK
binding result: binds

B5: CL-510596 (antibody, V domains shown)
VH: QVQLEESGGGVVQPGRSLRLSCTATGFTFSNYGMHWVRQAPGKGLEWVAVIWYDGSNKYYVDSVKGRFTISRDNSKNTLYLQMNSLRAEDTAVYYCARDGGYYGSGSYWWFDSWGQGTLVTVSS
VL: not shown
binding result: binds

B6: CL-510458 (antibody, V domains shown)
VH: QVQLVESGGGVVQPGRSLRLSCAASGFTFNNYGMHWVRQAPGKGLEWVAVIWYDGSNKFHADSVKGRFTISRDNSKNTLYLQMNSLRAEDTALYYCARVYYYDSGSYLDYWGQGTLVTVSS
VL: DIQMTQSPSSVSASVGDRVTITCRASQGISRWLAWYQQKPGKAPKLLIYAASSLQSGVPSRFSGSGSGTDFTLTISSLQPEDFATYCCQQANNFPWTFGQGTKVEIK
binding result: binds

B7: CL-510632 (antibody, V domains shown)
VH: QVQLVESGGGVVQPGRSLRLSCAASGFTFSNYGMHWVRQAPGKGLEWVAVIWYDGSNKFYADSVKGRFTISRDNSKNTLYLQTNSLRAEDTAVYYCARVYYYDSGNYLDYWGQGTLVAVSS
VL: DIQMTQSPSSVSASVGDRVTITCRASQGINNCLAWYQQKPGKAPKLLIYAASSLQSGVPSRFSGSGSGTDFTLTISNLQPEDFATYCCQQANSFPWTFGQGTKVEIK
binding result: binds

B8: CL-510514 (antibody, V domains shown)
VH: QVQLVESGGGVVQPGRSLRLSCTTSGFTFSNFGMHWVRQAPGKGLEWVALIWYDGSNKYYADSVKGRFTISRDNSKNTLYLQMNGLRAEDTAVYYCARDGGYYYGSGGAFDIWGQGTMVTVSS
VL: not shown
binding result: binds

B9: CL-510484 (antibody, V domains shown)
VH: QVQLVESGGGVVQPGRSLRLSCAASGFTFSNYGMNWVRQAPGKGLEWMAVIWYDGSNKYYGDSVKGRFTISRDNSKNTLYLQMISLRAEDTAVYFCAKSGEFYGSGSHFDYWGQGTLVTVSS
VL: not shown
binding result: binds

B10: CL-510469 (antibody, V domains shown)
VH: QVQLVESGGGVVQPGRSLRLSCAASGFTFSSYGMHWVRQAPGKGLEWVAVIWYDGSNQFYTDSVKGRFTISRDNSKNTLYLHMNSLRVEDTAIYYCARDGDYSSSAGDFDYWGQGTLVTVSS
VL: not shown
binding result: binds
